Results reported in patent US20070134724.
Residue numbers refer to the chain shown, from its start.

B1: abl2 tyrosine kinase (protein)
chain: GQQVGRVGEAPGLQQPQPRGIRGSSAARPSGRRRDPAGRTTETGFNIFTQHDHFASCVEDGFEGDKTGGSSPEALHRPYGCDVEPQALNEAIRWSSKENLLGATESDPNLFVALYDFVASGDNTLSITKGEKLRVLGYNQNGEWSEVRSKNGQGWVPSNYITPVNSLEKHSWYHGPVSRSAAEYLLSSLINGSFLVRESESSPGQLSISLRYEGRVYHYRINTTADGKVYVTAESRFSTLAELVHHHSTVADGLVTTLHYPAPKCNKPTVYGVSPIHDKWEMERTDITMKHKLGGGQYGEVYVGVWKKYSLTVAVKTLKEDTMEVEEFLKEAAVMKEIKHPNLVQLLGVCTLEPPFYIVTEYMPYGNLLDYLRECNREEVTAVVLLYMATQISSAMEYLEKKNFIHRDLAARNCLVGENHVVKVADFGLSRLMTGDTYTAHAGAKFPIKWTAPESLAYNTFSIKSDVWAFGVLLWEIATYGMSPYPGIDLSQVYDLLEKGYRMEQPEGCPPKVYELMRACWKWSPADRPSFAETHQAFETMFHDSSISEEVAEELGRAASSSSVVPYLPRLPILPSKTRTLKKQVENKENIEGAQDATENSASSLAPGFIRGAQASSGSPALPRKQRDKSPSSLLEDAKETCFTRDRKGGFFSSFMKKRNAPTPPKRSSSFREMENQPHKKYELTGNFSSVASLQHADGFSFTPAQQEANLVPPKCYGGSFAQRNLCNDDGGGGGGSGTAGGGWSGITGFFTPRLIKKTLGLRAGKPTASDDTSKPFPRSNSTSSMSSGLPEQDRMAMTLPRNCQRSKLQLERTVSTSSQPEENVDRANDMLPKKSEESAAPSRERPKAKLLPRGATALPLRTPSGDLAITEKDPPGVGVAGVAAAPKGKEKNGGARLGMAGVPEDGEQPGWPSPAKAAPVLPTTHNHKVPVLISPTLKHTPADVQLIGTDSQGNKFKLLSEHQVTSSGDKDRPRRVKPKCAPPPPPVMRLLQHPSICSDPTEEPTALTAGQSTSETQEGGKKAALGAVPISGKAGRPVMPPPQVPLPTSSISPAKMANGTAGTKVALRKTKQAAEKISADKISKEALLECADLLSSALTEPVPNSQLVDTGHQLLDYCSGYVDCIPQTRNKFAFREAVSKLELSLQELQVSSAAAGVPGTNPVLNNLLSCVQEISDVVQR
B2: Gleevec-resistant abl2 (T3611 form) (protein)
chain: B1 chain with T360I

Columns and labels:
[1] = target: tau, shortest isoform (tau352)
Chain of tau, shortest isoform (tau352) (chain, as listed by the source): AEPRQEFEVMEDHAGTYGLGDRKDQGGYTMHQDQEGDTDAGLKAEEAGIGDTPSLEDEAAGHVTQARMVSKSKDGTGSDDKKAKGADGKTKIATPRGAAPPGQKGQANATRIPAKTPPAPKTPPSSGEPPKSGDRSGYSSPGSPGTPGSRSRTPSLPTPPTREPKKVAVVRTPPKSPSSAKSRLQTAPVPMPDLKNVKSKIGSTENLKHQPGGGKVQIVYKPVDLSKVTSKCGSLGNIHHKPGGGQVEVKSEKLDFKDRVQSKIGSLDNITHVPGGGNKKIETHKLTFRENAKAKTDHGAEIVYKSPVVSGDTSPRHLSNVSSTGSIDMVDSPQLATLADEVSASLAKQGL

| Protein | phosphorylation of Y-to-F tau mutants co-transfected with abl2 (western blot with anti-pY) (tau) | phosphorylation of tau at Y310 (western blot with YP21) (tau) | phosphorylation of the long (4R) isoform co-transfected with abl2 (western blot, sandwich ELISA) (tau) | tyrosine phosphorylation of tau with and without Gleevec (western blot, ELISA) (tau) | phosphorylation of the short (3R) isoform co-transfected with abl2 (western blot, sandwich ELISA) [1] | tyrosine phosphorylation of tau in the presence of Gleevec (western blot, ELISA) (tau) |
| --- | --- | --- | --- | --- | --- | --- |
| B1 | Abl2 strongly phosphorylates Y394, with lower levels of phosphorylation at Y197 and Y310 | demonstrating phosphorylation of tau at Y310 | Y394 was the predominant site of abl2 phosphorylation | Abl1 or abl2 transfected into the cell is what directly phosphorylates tau | Y394 was the predominant site of abl2 phosphorylation | – |
| B2 | – | – | – | – | – | In the presence of Gleevec, both forms could phosphorylate tau |
